Measured values taken from patent US20240398804A1 (Dana-Farber, published 2024).

Tests used:
[1] = molecular target: SRC (endogenous, colon cancer cell lines) (UniProt P12931 2-536); experiment: YAP1 immunoprecipitation from colon cancer cell lysate (SW480), immunoblot
Procedure: (§1) The indicated colon cancer cell lines were infected with shRNAs targeting YES1 and proliferation (A) or anchorage independent growth (B) was assessed. The results were normalized to cells infected with a control shRNA targeting LacZ. (C) Subcutaneous HCT116 tumors expressing a doxycycline inducible YES1 shRNA were implanted into the cecum of nude mice and after 48 h were treated or not with doxycycline. Tumors were extracted three weeks post doxycycline treatment. (D) YES1 protein levels of tumors in (C). (E) YAP1 was immunoprecipitated from SW480 lystaes and following immunobloting the membrane was stained with the indicated antibodies. […] Following V5 IP the membrane was blotted with a phosphotyrosine antibody. […] (H) Proliferation or anchorage independent growth (I) of Hutu80 cell lines expressing YAP1 Y357F and infected with shRNAs targeting YAP1. (J) YAP1 protein levels of cells in (H) and (I).

FYN = FYN (UniProt P06241 2-537, limits assumed); experiment: as above
FYN, sequence (P06241 2-537 limits assumed): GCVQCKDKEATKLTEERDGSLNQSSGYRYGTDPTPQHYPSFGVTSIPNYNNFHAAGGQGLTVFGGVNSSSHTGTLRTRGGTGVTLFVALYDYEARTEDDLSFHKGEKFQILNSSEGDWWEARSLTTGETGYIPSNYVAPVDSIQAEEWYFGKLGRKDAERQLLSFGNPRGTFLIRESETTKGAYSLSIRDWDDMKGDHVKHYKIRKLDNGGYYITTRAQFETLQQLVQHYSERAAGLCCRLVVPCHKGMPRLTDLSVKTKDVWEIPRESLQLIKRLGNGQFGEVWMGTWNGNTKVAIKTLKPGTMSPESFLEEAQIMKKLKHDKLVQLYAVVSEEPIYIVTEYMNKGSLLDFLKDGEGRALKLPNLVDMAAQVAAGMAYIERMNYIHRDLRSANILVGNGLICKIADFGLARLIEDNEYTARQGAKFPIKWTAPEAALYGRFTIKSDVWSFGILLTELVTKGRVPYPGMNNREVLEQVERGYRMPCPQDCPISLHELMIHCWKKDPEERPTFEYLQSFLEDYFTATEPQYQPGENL
Procedure: as §1

B1: YAP1 (65 kd Yes-associated protein) (other, UniProt P46937-3 1-454, looked up)
chain: MDPGQQPPPQPAPQGQGQPPSQPPQGQGPPSGPGQPAPAATQAAPQAPPAGHQIVHVRGDSETDLEALFNAVMNPKTANVPQTVPMRLRKLPDSFFKPPEPKSHSRQASTDAGTAGALTPQHVRAHSSPASLQLGAVSPGTLTPTGVVSGPAATPTAQHLRQSSFEIPDDVPLPAGWEMAKTSSGQRYFLNHIDQTTTWQDPRKAMLSQMNVTAPTSPPVQQNMMNSASAMNQRISQSAPVKQPPPLAPQSPQGGVMGGSNSNQQQQMRLQQLQMEKERLRLKQQELLRQVRPQELALRSQLPTLEQDGGTQNPVSSPGMSQELRTMTTNSSDPFLNSGTYHSRDESTDSGLSMSSYSVPRTPDDFLNSVDEMDTGDTINQSTLPSQQNRFPDYLEAIPGTNVDLGTLEGDGMNIEGEELMPSLQEALSSDILNDMESVLAATKLDKESFLTWL
notes: Endogenous protein in the co-immunoprecipitations from colon cancer cell lysates; also called WT YAP1
binding result [1]: no binding | binding result (FYN): no binding
